# In patent publication US20090318350A1, “PAN-HER ANTAGONISTS AND METHODS OF USE” (priority 2006, published 2009):
# Numbering of substitutions follows the chain as printed. Names may count otherwise.
# B1: Heregulin (purified protein): heregulin, native HER3/HER4 ligand, purified protein (protein)
# chain: SHLVKCAEKEKTFCVNGGECFMVKDLSNPSRYLCKCPNEFTGDRCQNYVMASFYKHLGIEFMEAEELY
# B2: T1ER41D: T1E with arginine of position 41 replaced by aspartate (protein)
# chain: VVSHFNDCPLSHDGYCLHDGVCMYIEALDKYACNCVVGYIGEDCQYRDLKWWELRAETVESCLAKPHTENSFTNVWKDDKTLDRYANYEGCLWNATGVVVCTGDETQCYGTWVPIGLAIPENEGGGSEGGGSEGGGSEGGGTKPPEYGDTPIPGYTYINPLDGTYPPGTEQNPANPNPSLEESQPLNTFMFQNNRFRNRQGALTVYTGTVTQGTDPVKTYYQYTPVSSKAMYDAYWNGKFRDCAFHSGFNEDPFVCEYQGQSSDLPQPPVNAGGGSGGGSGGGSEGGGSEGGGSEGGGSEGGGSGGGSGSGDFDYEKMANANKGAMTENADENALQSDAKGKLDSVATDYGAAIDGFIGDVSGLANGNGATGDFAGSNSQMAQVGDGDNSPLMNNFRQYLPSLPQSVECRPFVFSAGKPYEFSIDCDKINLFRGVFAFLLYVATFMYVFSTFANILRNKES
# B3: EGFwrs: EGF variant, residues 2 and 3 replaced with W and R, N-terminus NWRSE (protein)
# chain: HHHHHHIEGRNWRSECPLSHDGYCLHDGVCMYIEALDKYACNCWGYIGERCQYRDLKWWELR
# B4: EGF (purified protein): human epidermal growth factor, 53 amino acid cytokine (PeproTech) (protein)
# chain: B3 chain with W12S, R13D
# Columns and labels:
# MCF-7 cells [1] = details: stated as known; cited from earlier work
# MCF-7 cells [2] = test: Cell proliferation assay (WST-1), heregulin dependent MCF-7 cells; assay type: cell-based, human; details: 72 hours, phage fusion or purified protein as labelled, read-out: Calculated cell proliferation (EC50)
# Procedure: (§1) Phage-fusion particles displaying ligand variants were evaluated for their ability to stimulate cell proliferation in the cell proliferation assay described herein in both an EGF dependent cell line, HER5 and a heregulin dependent cell line, MCF-7.
# MCF-7 cells (human breast cancer cell lines that express HER2 and HER3) were obtained from the American Type Culture Collection (ATCC). Stock cultures of MCF-7 were maintained in Eagle's MEM supplemented with 1% ITS-X (Invitrogen) and 10% fetal bovine serum.
# For proliferation assays, MCF-7 cells were transferred to serum-free medium (SFM) for 24 hours and then trypsinized and suspended at 10^5 cells/mL in SFM. Fifty microliters of cell suspension (5000 cells) were plated per well in 96 well microtiter plates. Serial dilutions of HER ligands or mutant proteins were prepared at twice the final concentration in SFM and 50 ul was added to wells, bringing the final volume to 100 ul at the desired final concentration. Plates were incubated for 72 hours at 37 C in a humidified 5% CO2 atmosphere. Cell proliferation was determined by addition of 10 ul/well of WST-1 Cell Proliferation Reagent (Roche Applied Sciences, Indianapolis, Ind.) for the last three hours of the proliferation period.
# HER5 cells [3] = details: cited from earlier work
# Her-3 = Her-3 (Homo sapiens, UniProt P21860); details: particularly for Her-3; cited from earlier work
# HER5 cells [4] = test: Cell proliferation assay (WST-1), EGF dependent HER5 cells; assay type: cell-based, mouse; details: 48 hour proliferation, phage fusion or purified protein as labelled, read-out: Calculated cell proliferation (EC50)
# Procedure: as §1
# The HER5 cell line, a murine fibroblast line (derived from the NR-6 line; mouse fibroblast cells that overexpress human EGFR) that has been stably transfected to express the human EGF receptor was provided by Dr. M. C. Hung (MD Anderson Cancer Center).
# Stock cultures of HER5 were propagated in D-MEM/F12 medium containing 10% fetal bovine serum, 100 units/ml of penicillin and 100 ug/ml of streptomycin in a water-jacketed incubator at 37° C. in a humidified 5% CO2 atmosphere.
# For HER5 proliferation assays, the cells were changed into DMEM/F12 without serum for 24 hours. Cells were then trypsinized and suspended at 1E5 cells/ml. Serial dilutions of EGF (PeproTech, Rocky Hill, N.J.), and HER ligand polypeptide variants were prepared in serum-free DMEM/F12 at 2-fold the final concentration and plated into the wells of 96-well plates. […] Cell proliferation was determined by addition of 10 ul/well of WST-1 Cell Proliferation Reagent (Roche Applied Sciences, Indianapolis, Ind.) for the last three hours of the proliferation period. […] The amount of formazan was measured at 450 nm using a microplate reader (Dynex Technologies) with MRX Revelation software.
# Her-3, sequence (P21860 20-1342): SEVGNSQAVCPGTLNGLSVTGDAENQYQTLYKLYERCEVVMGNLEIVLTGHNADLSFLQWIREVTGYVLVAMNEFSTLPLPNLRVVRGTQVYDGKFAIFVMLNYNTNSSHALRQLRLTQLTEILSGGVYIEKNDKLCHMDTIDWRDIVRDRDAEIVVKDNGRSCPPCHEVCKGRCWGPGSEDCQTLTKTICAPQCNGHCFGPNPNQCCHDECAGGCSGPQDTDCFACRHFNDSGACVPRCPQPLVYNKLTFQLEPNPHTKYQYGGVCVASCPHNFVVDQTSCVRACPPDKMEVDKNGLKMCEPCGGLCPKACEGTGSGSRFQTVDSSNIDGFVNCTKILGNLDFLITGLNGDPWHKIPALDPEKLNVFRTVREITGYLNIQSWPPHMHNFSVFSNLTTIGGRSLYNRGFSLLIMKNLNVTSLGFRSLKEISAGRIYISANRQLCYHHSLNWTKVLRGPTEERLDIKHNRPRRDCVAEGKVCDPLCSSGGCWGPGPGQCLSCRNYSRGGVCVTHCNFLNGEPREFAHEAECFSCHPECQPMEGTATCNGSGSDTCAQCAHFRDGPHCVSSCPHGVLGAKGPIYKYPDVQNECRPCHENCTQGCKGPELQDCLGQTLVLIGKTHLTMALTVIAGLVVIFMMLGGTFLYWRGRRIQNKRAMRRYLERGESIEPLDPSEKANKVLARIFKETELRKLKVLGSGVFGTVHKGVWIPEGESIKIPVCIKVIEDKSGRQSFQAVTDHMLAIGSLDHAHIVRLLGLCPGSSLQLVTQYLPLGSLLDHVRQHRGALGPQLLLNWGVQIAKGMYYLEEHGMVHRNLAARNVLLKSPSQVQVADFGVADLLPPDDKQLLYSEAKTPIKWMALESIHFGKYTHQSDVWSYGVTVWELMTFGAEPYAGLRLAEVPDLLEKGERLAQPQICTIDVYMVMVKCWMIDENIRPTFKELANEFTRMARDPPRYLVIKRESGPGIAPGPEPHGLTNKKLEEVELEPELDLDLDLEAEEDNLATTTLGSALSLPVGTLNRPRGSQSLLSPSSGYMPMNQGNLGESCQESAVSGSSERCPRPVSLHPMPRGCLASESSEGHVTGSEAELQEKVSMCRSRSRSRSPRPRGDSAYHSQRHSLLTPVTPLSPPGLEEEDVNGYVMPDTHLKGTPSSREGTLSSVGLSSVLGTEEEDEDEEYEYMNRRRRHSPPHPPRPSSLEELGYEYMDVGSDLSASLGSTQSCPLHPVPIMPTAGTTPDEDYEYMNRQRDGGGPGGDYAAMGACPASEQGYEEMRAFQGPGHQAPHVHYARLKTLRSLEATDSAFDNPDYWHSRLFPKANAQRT
molecule,measurement,setting,value
B1,stimulation of MCF-7 cells,MCF-7 cells [1],can be stimulated
same,EC50,MCF-7 cells [2],6.15 nM
B2,stimulation of cell proliferation in EGFR-dependent HER5 cells,"HER5 cells [3]; isolated ligand variants, previously demonstrated",greatly attenuated activity
B3,binding affinity,Her-3,high binding affinity
B4,EC50,HER5 cells [4],1.15 nM
same,stimulation of HER5 cells,HER5 cells [3]; stated as known,can be stimulated
same,stimulation of MCF-7 cells,MCF-7 cells [1],not
